# T1: recombinant human TREM2-DAP12 fusion protein on cells (human) (UniProt Q9NZC2)
# T1 sequence: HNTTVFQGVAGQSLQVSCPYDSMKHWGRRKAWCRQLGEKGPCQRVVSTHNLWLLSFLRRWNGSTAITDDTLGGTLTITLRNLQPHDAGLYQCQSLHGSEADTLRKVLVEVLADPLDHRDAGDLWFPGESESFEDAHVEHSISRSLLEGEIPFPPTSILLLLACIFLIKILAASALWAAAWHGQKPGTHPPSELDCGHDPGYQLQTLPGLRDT
# Target: T1, recombinant human TREM2-DAP12 fusion protein on cells (human)
# Test: FACS, 293 cells
row,MFI,Binder
1,1410 MFI,"Ab52 (antibody, human IgG1, V domains shown) VH: QVQLVQSGAEVKKPGASVKVSCKASGYTFTSYYIHWVRQAPGQGLEWMGIINPSGGSTSYAQKFQGRVTMTRDTSTSTVYMELSSLRSEDTAVYYCAREADDSSGYPLGLDVWGQGTMVTVSS VL: EIVMTQSPATLSVSPGERATLSCRASQSVSSNLAWYQQKPGQAPRLLIYGASTRATGIPARFSGSGSGTEFTLTISSLQSEDFAVYYCQQVNSLPPTFGGGTKVEIK"
2,2060 MFI,"Ab45 (antibody, human IgG1, V domains shown) VH: QVQLVQSGAEVKKPGASVKVSCKASGYTFTSYYMHWVRQAPGQGLEWMGIINPSGGSTSYAQKFQGRVTMTRDTSTSTVYMELSSLRSEDTAVYYCARGPGYTTALDYYYMDVWGKGTTVTVSS VL: EIVMTQSPATLSVSPGERATLSCRASQSVSSNLAWYQQKPGQAPRLLIYGASTRATGIPARFSGSGSGTEFTLTISSLQSEDFAVYYCQQLDDWFTFGGGTKVEIK"

# Target: T1, recombinant human TREM2-DAP12 fusion protein on cells (human)
# Test: FACS, hTrem2 cells
row,Binder,MFI
1,"Ab12 (antibody, human IgG1, V domains shown) VH: EVQLVQSGAEVKKPGESLKISCKGSGYSFTSYWIGWVRQMPGKGLEWMGIIYPGDSDTRYSPSFQGQVTISADKSISTAYLQWSSLKASDTAMYYCARLGHYSGTVSSYGMDVWGQGTTVTVSS VL: DIQMTQSPSSLSASVGDRVTITCRASQSISSYLNWYQQKPGKAPKLLIYAASSLQSGVPSRFSGSGSGTDFTLTISSLQPEDFATYYCQQEYAVPYTFGGGTKVEIK",1930 MFI
2,"Ab82 (antibody, human IgG1, V domains shown) VH: QVQLQESGPGLVKPSQTLSLTCTVSGGSISSGGYYWSWIRQHPGKGLEWIGYIYYSGSTVYNPSLKSRVTISVDTSKNQFSLKLSSVTAADTAVYYCARVSSSWYKAWGQGTMVTVSS VL: DIQMTQSPSSVSASVGDRVTITCRASQGISSWLAWYQQKPGKAPKLLIYAASSLQSGVPSRFSGSGSGTDFTLTISSLQPEDFATYYCQQASTFPITFGGGTKVEIK",371 MFI
3,"Ab83 (antibody, human IgG1, V domains shown) VH: QVQLQQWGAGLLKPSETLSLTCAVYGGSFSGYYWSWIRQPPGKGLEWIGEIDHSGSTKYNPSLKSRVTISVDTSKNQFSLKLSSVTAADTAVYYCARVGVVVGRPGYSAFDIWGQGTMVTVSS VL: DIQMTQSPSSVSASVGDRVTITCRASQGISSWLAWYQQKPGKAPKLLIYAASSLQSGVPSRFSGSGSGTDFTLTISSLQPEDFATYYCQQRNSLPLTFGGGTKVEIK",684 MFI
4,"Ab54 (antibody, human IgG1, V domains shown) VH: QVQLVQSGAEVKKPGASVKVSCKASGYTFTSYYMHWVRQAPGQGLEWMGIINPSGGSTSYAQKFQGRVTMTRDTSTSTVYMELSSLRSEDTAVYYCARGPGYTTALDYYYMDVWGKGTTVTVSS VL: DIQMTQSPSSLSASVGDRVTITCRASQSINSYLNWYQQKPGKAPKLLIYAASSLQSGVPSRFSGSGSGTDFTLTISSLQPEDFATYYCQQSDDDPFTFGGGTKVEIK",1930 MFI
5,"Ab52 (antibody, human IgG1, V domains shown) VH: QVQLVQSGAEVKKPGASVKVSCKASGYTFTSYYIHWVRQAPGQGLEWMGIINPSGGSTSYAQKFQGRVTMTRDTSTSTVYMELSSLRSEDTAVYYCAREADDSSGYPLGLDVWGQGTMVTVSS VL: EIVMTQSPATLSVSPGERATLSCRASQSVSSNLAWYQQKPGQAPRLLIYGASTRATGIPARFSGSGSGTEFTLTISSLQSEDFAVYYCQQVNSLPPTFGGGTKVEIK",1410 MFI
6,"Ab15 (antibody, human IgG1, V domains shown) VH: QVQLQESGPGLVKPSQTLSLTCTVSGGSISSGGYYWSWIRQHPGKGLEWIGNIYYSGSTVYNPSLKSRVTISVDTSKNQFSLKLSSVTAADTAVYYCARGLYGYGVLDVWGQGTMVTVSS VL: DIQMTQSPSSLSASVGDRVTITCQASQDISNYLNWYQQKPGKAPKLLIYDASNLETGVPSRFSGSGSGTDFTFTISSLQPEDIATYYCQQFDTYPTFGGGTKVEIK",1610 MFI

# Now from value to binder:
row,MFI,Binder
1,1930 MFI,"Ab51 (antibody, human IgG1, V domains shown) VH: QVQLVQSGAEVKKPGASVKVSCKASGYTFTSYYMHWVRQAPGQGLEWMGIINPSGGSTSYAQKFQGRVTMTRDTSTSTVYMELSSLRSEDTAVYYCARGVGGQDYYYMDVWGKGTTVTVSS VL: DIQMTQSPSSLSASVGDRVTITCRASQSISSYLNWYQQKPGKAPKLLIYAASSLQSGVPSRFSGSGSGTDFTLTISSLQPEDFATYYCQQFDDVFTFGGGTKVEIK"
2,1500 MFI,"Ab72 (antibody, human IgG1, V domains shown) VH: QVQLQESGPGLVKPSETLSLTCTVSGGSISSYYWSWIRQPPGKGLEWIGSIYYSGSTNYNPSLKSRVTISVDTSKNQFSLKLSSVTAADTAVYYCARSGTETLFDYWGQGTLVTVSS VL: DIQMTQSPSSLSASVGDRVTITCQASQDITNYLNWYQQKPGKAPKLLIYDASNLETGVPSRFSGSRSGTDFTFTISSLQPEDIATYYCQQDVNYPPTFGGGTKVEIK"
3,1620 MFI,"Ab8 (antibody, human IgG1, V domains shown) VH: QLQLQESGPGLVKPSETLSLTCTVSGGSISSSSYYWGWIRQPPGKGLEWIGSISYSGSTYYNPSLKSRVTISVDTSKNQFSLKLSSVTAADTAVYYCARGPYRLLLGMDVWGQGTTVTVSS VL: DIQMTQSPSSLSASVGDRVTITCRASQSISSYLNWYQQKPGKAPKLLIYGASSLQSGVPSRFSGSGSGTDFTLTISSLQPEDFATYYCQQIDDTPITFGGGTKVEIK"
4,1350 MFI,"Ab63 (antibody, human IgG1, V domains shown) VH: QVQLVQSGAEVKKPGASVKVSCKASGYTFTSYGISWVRQAPGQGLEWMGWISTYNGNTNYAQKLQGRVTMTTDTSTSTAYMELRSLRSDDTAVYYCARGSGSGYDSWYDWGQGTLVTVSS VL: DIQMTQSPSSVSASVGDRVTITCRASQGIDSWLAWYQQKPGKAPKLLIYAASSLQSGVPSRFSGSGSGTDFTLTISSLQPEDFATYYCQQAYSLPPTFGGGTKVEIK"
5,1310 MFI,"Ab73 (antibody, human IgG1, V domains shown) VH: EVQLVQSGAEVKKPGESLKISCKGSGYSFTSYWIGWVRQMPGKGLEWMGIIYPGDSDTTYSPSFQGQVTISADKSISTAYLQWSSLKASDTAMYYCARAKMLDDGYAFDIWGQGTMVTVSS VL: EIVMTQSPATLSVSPGERATLSCRASQSVSSNLAWYQQKPGQAPRLLIYGASTRATGIPARFSGSGSGTEFTLTISSLQSEDFAVYYCQQDDNYPYTFGGGTKVEIK"
6,1460 MFI,"Ab64 (antibody, human IgG1, V domains shown) VH: EVQLVQSGAEVKKPGESLKISCKGSGYSFTSYWIGWVRQMPGKGLEWMGIIYPGDSDTRYSPSFQGQVTISADKSISTAYLQWSSLKASDTAMYYCARLGRWSSGSTAFDIWGQGTMVTVSS VL: EIVMTQSPATLSVSPGERATLSCRASQSVSSNLAWYQQKPGQAPRLLIYGASTRATGIPARFSGSGSGTEFTLTISSLQSEDFAVYYCQQDDDGYTFGGGTKVEIK"
